Results published in a protein production outcome set (Wang et al. 2014).

test: label from the status in PepcDB records

Sequence	protein production
MTISNFVNYIRSPPVNGFVCCTRGSSIAVCNPTTRQIVKLPDVVTNENYMHVRLGYDPVEDQYKVLLVVMMFDGYRTDTDQEYFVFTLSSQQKEWRKIENTTGETYHMVYGGICIDGAIYYGVSQSIIVKFDVRSEKMEFIQAHEVSHIAPPYYSTLLYLSSDMIRMENHSNEEVRFWILEDAEKLRVSHMACDVWDDSLGKYVRAKEEIHTGKLMGIYPRLQSSKYKPFSVCVYHFNKVGLKKTEIQGSNDDDIRFRCGIGMRTHEILILEVTLRILGSCEEFSWFH	not failed
MTISWFQAALLGLFACLSSMPGLGGTTIGNYTLGRPLVGGLVCGLILGDIKTGIVCGVAMQLVYIALVTPGGTVSADVRAVSYIGIPLAMVAIHSQGLSATSSDAANLAKSMGTLVGTIGTVLFYGTATMNLVWQHIGWQAVEKREFKRLYVVDWGLPWISHIVFSFIPTLIMCKLGADAVTALKNALPMDGIPMKTLFTVGSLLPCVGIAILLKQIVEKAVDFIPFFVGFTLAASLGLNLVSCAVISLIFAVLFYELETIKNMRATASAEASDFDDDDEEDI	failed
MTKAIPWKINWQTMAFEYIGPQIEALLGWPQGSWKSVEDWATRMHPEDQEWVVNFCVKQSECGVDHEADYRALHRDGHYVWIRDVVHVVRDDSGEVEALIGFMFDISLEHHHHHH	not failed
MTKAREFLGTGWKFPVAAGADGAMVLSSAEEDIAESIRIILGTARGERVMRPDFGCGIHDRVFSVINTTTLGLIENEVKEALILWEPRIELLSVTASPREAAEGRLLIDIEYRVRSTNTRFNLVYPFYLKESA	not failed
MTKFKGIIYASLGAAFFGISSIIAGLLFNRCSIEPGWLVTTRMLFSGLLLLAWLAITKHNIFSVWSSVKSSLRIVAFGIFGVLFAQSSFLLSVYYGNAAIATILQSLGPSIIIIILAIKSKAIPRRLDIIAIFLSLIGVFLLVTNGNIGELSFSASALVWGLLSALGVCAYTLIPCPLIKEHPPLSLVAWALLIGGVISNFLHPVTNLPKNFDQTDLLLVSLIVVVGTLLAYSLYINSLKYTEPHIVGMLGMLEPVTAILISTLFLGVSFLGFQQLGIFVVFLSLFLINFPAKKK	failed
MTKFSIIIPTRERVGTLLYTLPACLRVERDDIEFVVCDNYSQDGTADYLKSIQDHRVRIYRTNQRLSMKDNFEHGLARAQGEYICFMGDDDLIIPSLFPLVEKELENVETVCWNRWVYYWPDSYESPNMLIVNNNNFSVILSSSRALDFALRYFLNYQNLPSLYNSFTHRKIVQRVINYNCLNLETEKFYPQDAISPDVFSALQILKFTNSFAHIGLPLTVSGISSSSNGAGVRNNSEESKKFIQELKVEKLSDLLHVSLSALLTQKISYYITNLSDYISFIINYIPETLQEDIFLDLIASGCRTLFDIGDIDADTATQFMAGYDISPWVVNGRLNLMDQGFYTLFRVPMFNRVVINGDEHSLSNSLNASVFLDDYFSSLIY	failed
MTKGSRKSRRRQQAPTKARPEQGRSAPAQRPAPTFRLRTAALLAIGSGALFFLLASGLSWFKTSEISSPPTREAELSFVGSQACSGCHQAETRLWQSSQHRHAMDHATDTSVRGDFNDAAFEYAGTRSRFFRKDRKFLIETDGPDGKLATFEVKYAFGVDPLQQYLIEFPDGRIQALSIAWDTRPKDQGGQRWFHLYPDAAVTSSDPLHWTRLNQNWNFMCAECHSTNVHKNYDAARDRFATSFSEISVGCEACHGAGSRHVSWAQQKPAARGPDNGLLVRFDERSGITWSADAETMTPKRSAPPATLRKEVEVCGRCHARRGQFSEDWRPGKSLSETHRVSLLDRQSFHADGQMRDDEETYNYASFKQSKMFAKGVTCSDCHDPHSAALKAPGDGVCAQCHAPAKYEAAAHRQHANVSPPPGCASCHMPERRYMVVDRRHDHGFRIPRPDLSVQLGTPNACNDCHRDKPAAWAARQVETWFGPQRLGFQAYARAFHAAWSEAADAQALLSAVVANDAPGIVRAGALAELPAPDADLIRRALSDPDPLVRLGALDALEGIPADQLWTLASAQLTDPVRGVRIRAAELLASVPPSRQPAADRNKFTQAAAEFVAAQKLNADRPDARAALGNFLARQAGAAEAEAEYRAALRLDPSFPPAAINLSDLYRQLGRDSDGERILRETLTKSGQNASLHHALGLVLVREKRADEALGELRQAAELDPGQPRYAYVYAVGLHSSGRRDDALAVLRTSLQVHPNDRESVSAALALSREKGDSASALGYAEQLSRLMPGNREIEDLIKQLKQ	failed
MTKIIPVASGKGGVGKTSFVANVGYKLSSLGKTVILVDLDLGGSNLHTCLGVKNKGVGIGSFINKKSKSFSDLVCKTSYDKLYLIPGDALYTGTANLPFSIKKKIIESIQKDLIADFIFLDLGSGTSYNTIDFYLASYSGVIVTIPETPSILNAYSFLKNALYRLLYLGFPQKSPERDYIGNFFKDKIEGTNLGFKDLVVGIELISLSSSLKVKRMMNNFYPRVVLNRIETSEEIAMCENLINVVKNNINIPIEFIGFVPFAKSFREAINNRVPFIDFEKNSKLNKYFEFIAGNLIKSP	failed
MTKIYFAGPLFSQADLRYNAYLVEQIRQLDKTIDLYLPQENAAINDKSAYADSKMIALADTENVLASDLLVALLDGPTIDAGVASEIGVAYAKGIPVVALYTDSRQQGADNHQKLDALNEIAENQFHYLNLYTVGLIKLNGRVVSSEEDLLEEIKQRLS	not failed
MTKKLNPLEDPPTATSSDEDDVETSEAGEASDDSSSSEEDVPIKIRIKSPSATTAAAPPAKSTAVSTAADSDSGSETETDSDSESTNPPNSGSGKTIALNTVNLKKKEDPTSSSATLALPAMKSGTKRPASEAAATTSTKRVKKDEESVKKPGGFQRLWSEEDEILVLQGMIDFKADTGKSPYVDTNAFYDFLKKSISFEVSKNQFMDKIRSLRKKYIGKEGRNEPSFVKAHDKKAFELSKFIWGPKGIALDSNVKSNGVSKKSVAKKKIDSVKQELVFAGGSSTNGKKVEEDGGDDGCDWFDNSSLVRMIASLGVDEYYVKQQWSLVSVESKKIVEEKYKLLQAKELEFVLEKTKFLNEVASMFVEASKNKPLDT	failed
MTKLALFVRLEAKPGQEAALADFLASALPLANAESGTTAWFALKFGPSTFGVFDAFADEAGRQAHLNGQIAAALMANAATLLSSPPNIEKVELLAAKLPA	not failed
MTKNPRTLYEKIWDAHIVERREDGSALIYIDRHLVHEVTSPQAFEALRQAGRPLRRPDRTLAVPDHNVPTTARVDSEGHLLPIADPQSAKQLAALAKNAPEFGVRYISATDPEQGIVHVVGPEQGFTLPGTTLVCGDSHTAAHGALGALAFGIGTSEVEHVMATQTLILTPAKTMEVRVEGKLSPDVSAKDLILHIIHSLGTAGGTGYAIEYTGEAIRNLSIEERLTVSNMSIEAGARTGLIAADEKTFAYLFGRPMAPKGADWEKAVQWWKSLATDKGAVYDKTVIIKAEDVQPSVTWGTSPEDVVPITGVVPDPASFADPAKQAAARRSLEYMGLEPGQKMEGLAVENVFIGSCTNSRIEDLRAAASVVWGRHVADNVKQALVVPGSGLVKRQAEAEGLDEVFKAAGFEWREPGCSMCLAMNPDKVPAGERCASTSNRNFVGRQGPGARTHLVSPAMAAAAAVTGHLTDLRHLEPVKMGEKA	failed
MTKQKSKPVEYHPFPQLVLTLDVRRSFTPTFLRQILQTRSFACVILYDSQGVQDDAVFLQKQAQIYAEDIQSNGAAFLISGERRVSERIKADGLHIEGDLKALEYCDYQKKEQKIIGFGNIRNRHCAMVAGEAGVDYLLFGKLGADKKPHAHPRNLQLARWWAEIMETPAIVQAGSDFATFDEVIKTACEFIAIEEVIFAHDNPLMLLKMMQEKCKNSPL	failed
MTKRVTCSACDGFGAEGGETGMVSCNSCEGNGFILKNQRSIFGTVQSQMLCQSCGGQGKQALEHHHHHH	failed
MTKSELIEQLCSKKPQLSAKQVEDTVKEILEQMATTLEGGDRIEIRGFGSFSLHYREPRLGRNPKTGDKVELDGKFVPHFKPGKELRERVNYS	failed
MTKSVDTLLIPGPIILSGAVQKALDVPSLGHTSPEFVSIFQRVLKNTRAVFKSAAASKSQPFVLAGSGTLGWDIFASNFILSKAPNKNVLVVSTGTFSDRFADCLRSYGAQVDVVRPLKIGESVPLELITEKLSQNSYGAVTVTHVDTSTAVLSDLKAISQAIKQTSPETFFVVDAVCSIGCEEFEFDEWGVDFALTASQKAIGAPAGLSISLCSSRFMDYALNDSKNGHVHGYFSSLRRWTPIMENYEAGKGAYFATPPVQLINSLDVALKEILEEGLHKRWDLHREMSDWFKDSLVNGLQLTSVSRYPSNMSAHGLTAVYVADPPDVIAFLKSHGVVIAGGIHKDIGPKYIRIGHMGVTACNKNLPYMKNCFDLIKLALQRKK	not failed
MTLFDGTPFEWAPGRIEVRARRECGASRKSLVVAAGVSYLARMIFSFDAFVTNALFDRSGRAMFALGDGTVRLQTDEGFVTVEAHGGPLGGAVLAAAVHPSGAGIVTGGDDGRVVWSRIEGGEVVATLIAEVKNKWIEHVAASAASGLIAFTVGKEVHVRDAADPAFARTFPHEKTVSGLAFEPKGRRLASATYGGAYLWYARIADQKPTVLKWAGSHIAVEFSPDGKFLISSMQENQLHGWRLSDGKDMRMGGYPSKIKSVAFFDKGNLLATAGASGAVIWPFAGANGPMGKEAAEIGFSRDSMVVRVAGIDPQPVCIAGQDSGKIWAAHMRNGRIETLKAEKGAPISALSVSADGKRLAWGDESGEAGVLEIPDLSGPRQFVGLEHHHHHH	failed
MTLGTNQVSKTHSFMTVSLIELWERFGYYGMQALIVYFMVQRLGFDDSRANLVWSACAALIYVSPAIGGWVGDKILGTKRTMLLGAGILSVGYALMTVPTENTWFMFSALGVIVVGNGLFKPNAGNLVRKIYEGDDSKIDSAFTIYYMAVNVGSTFSMLLTPWIKDYVNAQYGNEFGWHAAFAVCCVGILVGLGNYALMHKSLANYGSEPDTRPVNKKSLAIVLALAALSVVASAIILEYEDVARVFVYAAGVAVLGIFFHLIRTSEPSERAGLIAALILTVQTVFFFIFYQQMSTSLALFALRNVDWDFQVFGTHLWTWSPAQFQALNPIWIMVLSPVLAWSYSWAGRNNKDFSIAAKFALGFAVVAIGFFIYGFAGQFAVNGKTSSWVMIWGYASYSLGELLVSGLGLAMIARYVPARMGGFMMGAYFVASGISQYLGGVVANFASVPQDLVDPLQTLPVYTNLFNKLGVAAVVCTIIALAVLPLMRRLTESHHAHSSIENNAAASLRDVKAEQ	failed
MTLIRWNPWQDLNTLQRQLNHLFEEDMLPSTLLERTLTRVPAAELHETAEVIYLKLELPGIDAKDVDLQVTDKAVYISGERKSETKTEDKGVFKSEFQYGKFQRVIPLPARIQNTNVTAEYKDGILNLTLPKAEVEKNKVVKINIESAAGLEHHHHHH	not failed
MTLKGTAERWGWMSQALHWLIAVLILGLGIGGLIMGKLPKTPNYFWVYTAHKSIGISVLALAVLRLFWRLYAGAPKPIAGTPVWQERVANATHIMLYVLIFTIPLAGWLYDSARGLRTFYWFGLFEMPALVSPNETIRGVALEIHKLSFWALIGLVVLHAGAAFHHHLIQRDATLARMLPRNWFSSKS	failed
MTLKPTQQRLLLMLGWLHLQCGQPRRAQVLLEALLSVAPERRDGRRALLLALLQQGLGEPAVRLCRQLQEDGEEEPGLWRCLSRAEQLAGRLDAARAAHARALELEARELEHHHHHH	not failed
MTLLQQIMWGSLYLGLCFVVEVLLLVWCTLVIVHLSIRLRHLSRAMRTAAVISVSLAFIVLAHTLQVWLWAGVWIWSDVLTDWNEALYFSLVTYTTLGYGDIVLGPGLRIFAAFAAVAGLLAFGLSTAYLVALMSRVFEGRLPR	failed
MTLMVPFKQVDVFTEKPFMGNPVAVINFLEIDENEVSQEELQAIANWTNLSETTFLFKPSDKKYDYKLRIFTPRSELPFAGHPTIGSCKAFLEFTKNTTATSLVQECKIGAVPITINEGLISFKAPMADYESISSEMIADYEKAIGLKFIKPPALLHTGPEWIVALVEDAETCFNANPNFAMLAHQTKQNDHVGIILAGPKKEAAIKNSYEMRAFAPVINVYEDPVCGSGSVALARYLQEVYKFEKTTDITISEGGRLKRNGLMLASIKKEADNSTSYYIAGHATTVIDGKIKV	not failed
